Laboratory results taken from patent US20250230224A1 (University of California, published 2025).

How the values were obtained:
[1] = target: T1, BoNT/F1 (UniProt A7GBG3 1-1278); experiment: KinExA, IgG
T1 sequence: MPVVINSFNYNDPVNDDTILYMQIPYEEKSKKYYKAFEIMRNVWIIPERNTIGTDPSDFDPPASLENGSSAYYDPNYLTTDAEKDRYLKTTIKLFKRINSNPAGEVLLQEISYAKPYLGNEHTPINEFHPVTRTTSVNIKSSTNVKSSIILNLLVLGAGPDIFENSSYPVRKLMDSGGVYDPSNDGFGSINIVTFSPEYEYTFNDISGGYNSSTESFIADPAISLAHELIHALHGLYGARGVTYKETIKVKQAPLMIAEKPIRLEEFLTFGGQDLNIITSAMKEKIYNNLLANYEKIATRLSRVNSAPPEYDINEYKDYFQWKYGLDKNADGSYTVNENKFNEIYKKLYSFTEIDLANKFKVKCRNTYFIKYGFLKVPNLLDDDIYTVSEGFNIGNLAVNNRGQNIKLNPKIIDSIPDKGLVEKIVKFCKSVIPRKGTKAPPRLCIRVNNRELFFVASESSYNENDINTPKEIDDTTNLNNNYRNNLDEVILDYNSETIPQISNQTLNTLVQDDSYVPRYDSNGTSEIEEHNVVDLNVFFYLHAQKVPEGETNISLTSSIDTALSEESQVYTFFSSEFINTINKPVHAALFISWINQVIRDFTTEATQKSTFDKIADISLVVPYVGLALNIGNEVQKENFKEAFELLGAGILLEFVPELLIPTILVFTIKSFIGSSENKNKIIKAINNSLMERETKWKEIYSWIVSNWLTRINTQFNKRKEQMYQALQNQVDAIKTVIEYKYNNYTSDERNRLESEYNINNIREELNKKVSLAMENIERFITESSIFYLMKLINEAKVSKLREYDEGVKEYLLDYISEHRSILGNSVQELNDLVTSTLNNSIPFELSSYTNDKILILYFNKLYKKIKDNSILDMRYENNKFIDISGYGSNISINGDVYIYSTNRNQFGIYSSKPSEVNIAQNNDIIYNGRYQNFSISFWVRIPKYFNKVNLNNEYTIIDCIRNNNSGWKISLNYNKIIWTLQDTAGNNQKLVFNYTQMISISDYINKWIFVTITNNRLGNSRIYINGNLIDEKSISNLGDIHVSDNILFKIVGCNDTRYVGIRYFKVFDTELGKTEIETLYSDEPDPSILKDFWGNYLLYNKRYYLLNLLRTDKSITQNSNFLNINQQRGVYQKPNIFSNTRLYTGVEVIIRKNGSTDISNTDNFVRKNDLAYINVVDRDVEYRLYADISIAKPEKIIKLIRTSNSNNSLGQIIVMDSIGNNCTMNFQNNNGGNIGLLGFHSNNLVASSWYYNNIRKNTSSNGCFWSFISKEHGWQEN

[2] = target: Mosaic botulinum neurotoxin BoNT/DC (Clostridium botulinum); experiment: KinExA flow fluorimetry, solution phase, IgG
[3] = target: T2, Botulinum neurotoxin serotype C (BoNT/C) (Clostridium botulinum, UniProt P18640 2-1291); experiment: KinExA flow fluorimetry, solution phase, IgG
T2 sequence: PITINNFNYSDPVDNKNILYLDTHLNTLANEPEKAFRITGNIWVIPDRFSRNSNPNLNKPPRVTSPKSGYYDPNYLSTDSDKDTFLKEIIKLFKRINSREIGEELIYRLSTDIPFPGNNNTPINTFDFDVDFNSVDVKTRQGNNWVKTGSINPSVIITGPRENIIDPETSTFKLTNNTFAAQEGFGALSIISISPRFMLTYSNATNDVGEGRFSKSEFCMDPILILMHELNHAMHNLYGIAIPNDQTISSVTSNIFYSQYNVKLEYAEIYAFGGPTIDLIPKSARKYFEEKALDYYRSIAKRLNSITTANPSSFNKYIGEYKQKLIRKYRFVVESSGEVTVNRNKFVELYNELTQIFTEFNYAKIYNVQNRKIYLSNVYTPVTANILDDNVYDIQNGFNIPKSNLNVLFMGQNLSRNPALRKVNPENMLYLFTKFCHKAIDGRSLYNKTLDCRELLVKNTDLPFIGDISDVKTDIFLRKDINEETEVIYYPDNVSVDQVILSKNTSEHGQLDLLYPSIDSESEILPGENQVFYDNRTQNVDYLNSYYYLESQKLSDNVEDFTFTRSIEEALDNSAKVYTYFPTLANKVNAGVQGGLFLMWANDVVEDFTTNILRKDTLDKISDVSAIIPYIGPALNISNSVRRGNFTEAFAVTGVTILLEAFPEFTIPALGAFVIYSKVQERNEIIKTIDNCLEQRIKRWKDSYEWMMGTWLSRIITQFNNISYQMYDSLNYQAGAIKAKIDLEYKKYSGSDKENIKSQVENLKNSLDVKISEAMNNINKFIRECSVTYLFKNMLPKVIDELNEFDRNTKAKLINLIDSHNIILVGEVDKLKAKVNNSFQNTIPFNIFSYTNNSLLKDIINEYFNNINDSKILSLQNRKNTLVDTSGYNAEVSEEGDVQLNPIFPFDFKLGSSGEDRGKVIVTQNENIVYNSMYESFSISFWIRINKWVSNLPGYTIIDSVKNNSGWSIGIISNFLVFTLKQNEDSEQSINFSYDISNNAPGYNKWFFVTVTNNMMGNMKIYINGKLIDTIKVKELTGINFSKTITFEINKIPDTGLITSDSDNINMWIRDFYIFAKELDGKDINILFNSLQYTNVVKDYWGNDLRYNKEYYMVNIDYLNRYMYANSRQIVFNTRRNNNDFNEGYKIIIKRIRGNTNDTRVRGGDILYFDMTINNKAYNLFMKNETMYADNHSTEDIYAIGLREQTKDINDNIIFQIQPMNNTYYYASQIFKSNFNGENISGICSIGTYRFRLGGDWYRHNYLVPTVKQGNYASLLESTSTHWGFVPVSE

[4] = target: T3, Botulinum neurotoxin serotype D (BoNT/D) (Clostridium botulinum, UniProt P19321 2-1276); experiment: KinExA flow fluorimetry, solution phase, IgG
T3 sequence: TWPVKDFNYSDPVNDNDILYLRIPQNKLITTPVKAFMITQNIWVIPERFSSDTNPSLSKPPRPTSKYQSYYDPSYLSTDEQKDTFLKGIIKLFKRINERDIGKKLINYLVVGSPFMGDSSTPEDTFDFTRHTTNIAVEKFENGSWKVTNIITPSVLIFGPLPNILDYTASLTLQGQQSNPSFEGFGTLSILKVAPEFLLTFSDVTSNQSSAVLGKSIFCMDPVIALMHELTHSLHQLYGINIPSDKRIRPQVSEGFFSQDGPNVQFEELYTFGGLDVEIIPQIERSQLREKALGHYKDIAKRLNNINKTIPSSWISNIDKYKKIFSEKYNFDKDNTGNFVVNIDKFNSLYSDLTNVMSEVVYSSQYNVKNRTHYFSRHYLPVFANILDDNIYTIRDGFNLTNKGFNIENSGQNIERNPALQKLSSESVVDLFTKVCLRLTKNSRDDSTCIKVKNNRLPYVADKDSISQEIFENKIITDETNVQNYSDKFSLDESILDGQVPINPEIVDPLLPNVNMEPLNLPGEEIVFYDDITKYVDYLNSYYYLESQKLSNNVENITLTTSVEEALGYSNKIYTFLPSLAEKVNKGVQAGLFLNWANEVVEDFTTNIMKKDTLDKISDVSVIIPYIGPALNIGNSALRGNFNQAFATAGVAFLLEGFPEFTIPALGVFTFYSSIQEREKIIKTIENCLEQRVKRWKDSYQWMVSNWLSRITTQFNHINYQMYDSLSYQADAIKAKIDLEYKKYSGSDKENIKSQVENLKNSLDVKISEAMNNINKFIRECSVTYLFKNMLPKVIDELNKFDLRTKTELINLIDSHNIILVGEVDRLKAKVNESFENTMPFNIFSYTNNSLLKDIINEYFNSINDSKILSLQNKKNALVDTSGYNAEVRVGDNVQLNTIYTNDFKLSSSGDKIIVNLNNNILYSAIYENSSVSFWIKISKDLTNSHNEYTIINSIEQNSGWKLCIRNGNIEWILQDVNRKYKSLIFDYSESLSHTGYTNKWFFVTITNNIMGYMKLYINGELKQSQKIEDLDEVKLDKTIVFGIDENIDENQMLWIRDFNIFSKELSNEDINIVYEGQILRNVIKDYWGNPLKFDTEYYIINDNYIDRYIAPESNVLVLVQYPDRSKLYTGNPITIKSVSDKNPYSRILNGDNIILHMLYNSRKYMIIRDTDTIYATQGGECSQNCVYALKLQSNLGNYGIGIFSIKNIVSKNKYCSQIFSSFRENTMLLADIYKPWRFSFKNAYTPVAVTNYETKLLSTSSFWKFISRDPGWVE

Binder	Kd [1]	Kd [2]	Kd [3]	Kd [4]
Hu6F13.4 IgG (antibody, V domains shown) VH: QVQLVQSGAEVKKPGASVKVSCKASGYSFTSYWMHWVRQAPGQGLEWIGFINPINGGIIYNEKFRFRATLTVDTSISTAYMELSRLRSDDTAVYYCARAGYYGSSRHFDVWGQGTLLTVSS VL: ETTLTQSPSSLSASVGDRVTITCRASQGIRNYLAWYQQKPGKAPKLLIYDASNLETGVPSRFSGSGSGTDFTFTISSLQPEDFATYYCLQTSSTPWTFGQGTKVDIKR	0.173 nM	–	–	–
4C4 IgG (antibody, V domains shown) VH: QVQLVESGPGLVKPSQTLSLTCSVSGASINNSPYFWNWFRQFPGKGLEWIGYIYWSGSTNYNPSLKSRLAMSVDTSKNQFSLKLTSATAADTAVYYCARDQGGGTVVKENWFDPWGQGTLVTVSS VL: DIVMTQSPSSLSASVGDRLTMTCQASQDIGKHLNWYQQKAGKPPKLLIYGASNLKTGVPSRFSAGVSWTDFTFTISNVQPEDVATYYCQQSYSTPPTFGQGTKVEIK	–	0.597 nM	0.888 nM	–
4C4.2 IgG (antibody, V domains shown) VH: QVQLVESGPGLVKPSQTLSLTCSVSGASINNSPYFWNWFRQFPGKGLEWIGYIYWSGSTNYNPSLKSRLAMSVDTSKNQFSLKLTSATAADTAVYYCARDQGGGTVVKENWFDPWGQGTLVTVSS VL: DIQMTQSPSTLSASVGDRVTITCRASQSIGTYLNWYQQKPGRAPTLLVSRTSNLHTGVPSRFSGDGSGSHFSLTIDSLQPEDFATYYCQQSHTSPVTFGQGTKVEIK	–	0.126 nM	0.035 nM	0.254 nM
4C4.1 IgG (antibody, V domains shown) VH: QVQLVESGPGLVKPSQTLSLTCSVSGASINNSPYFWNWFRQFPGKGLEWIGYIYWSGSTNYNPSLKSRLAMSVDTSKNQFSLKLTSATAADTAVYYCARDQGGGTVVKENWFDPWGQGTLVTVSS VL: ETTLTQSPSSLSASVGDRVSITCRASQSISNYLNWYQQKPGKAPKLLIYAASSLQSGVPSRFSGSGSGTDFTLTISSLQPEDFATYYCQQSYSDPPTFGQGTKVEIK	–	0.058 nM	0.57 nM	0.898 nM
4C4.4 IgG (antibody, V domains shown) VH: QVQLQESGPGLVKPSQTLSLTCTVSGASISNSPYFWNWFRQFPGKGLEWIGYIYWSGSTNYNPSLKSRLAMSVDTSKNQFSLKLTSATAADTAVYYCARDQGGGTVVKENWFDPWGQGTLVTVSS VL: DIVMTQSPSSLSASVGDRLTMTCQASQDIGKHLNWYQQKAGKPPKLLIYGASNLKTGVPSRFSAGVSWTDFTFTISNVQPEDVATYYCQQSYSTPPTFGQGTKVEIKR	–	–	0.016 nM	–
8DC4.1 IgG (antibody, V domains shown) VH: QVQLQESGPGLVKPSQTLSLTCTVSGGSISSDNYFWTWIRQSPGKGLEWLGHISYSGRSYTNLSLKRRLTISVDTSKNQFSLNLNSVTAADTAVYYCARERLPPGRGYDMDVWGQGTTVTVSS VL: not shown	–	1.4 nM	1.4 nM	1.4 nM
8DC4.4 IgG (antibody, V domains shown) VH: QVQLQESGPGLVKPSQTLSLTCTVSGGSISSDNYFWTWIRQSPGKGLEWLGHISYSGRSYTNLSLKRRLTISVDTSKNQFSLNLNSVTAADTAVYYCARERLPPGRGYDMDVWGQGTTVTVSS VL: DIVMTQSPSSVSASVGDRVTITCRASRDISIYLNWYQQKPGKAPKLLIYAASNLETGVPSRFSGSGSGTDFTLTISSLQPEDVATYYCQQSYNTPLTFGGGTKLEIKR	–	–	0.136 nM	0.157 nM
6F5.4 IgG (antibody, V domains shown) VH: EVQLVPSGGNLVQPGGSLRLSCAATGPIDYHWMTWVRQAPGQGLEWVANINLDGTEKFYVDSVKGRFTVSRDNRKSSVFLQMNNLRVDDTAVYYCARLQWGERDGWLSPWGQGTLVTVSS VL: DIVMTQSPPSLSASVGDRVRLTCRASQSIGRSLNWYQQKPGKAPKLLIYDASALHSGVPSRFSGSGSGTDFTLTISGLQPEDFATYYCQQTNDLPVTFGGGTKLEIKR	0.0149 nM	–	–	–
Hu6F11 IgG (antibody, V domains shown) VH: EVQLVESGGGLVKPGGSLRLSCAASGFTFSNYGMSWVRQAPGKGLEWVASISSGGSYIYYPDSVKGRFTISRDNAKNSLYLQMNSLRAEDTAVYYCARRKGYDSLYWYFDVWGQGTLVTVSS VL: DVVMTQSPSSLSAFVGDRVTITCRASQGIRSYLAWFQQKPGKAPKLLIYAASTLQSGVPSRFSGSGSGTEFTLTVSGLQPEDFATYYCQQYNSYPLTFGGGTRLEIKR	0.00071 nM	–	–	–
